Consider one molecule from publication PMC9173640, “PI Kinase-EhGEF2-EhRho5 axis contributes to LPA stimulated macropinocytosis in Entamoeba histolytica” (PLoS Pathogens, 2022).

The target of the assay is T1, GST-RBD (Rho binding domain of mRhotekin) ( (printed as mRhotekin), UniProt Q8C6B2 17-98).
T1 construct: also called RBD-GST; source: E. coli BL21(DE3), purified (GST-sepharose beads); construct a gift from Dr. Richard Cerione
T1 sequence (looked up): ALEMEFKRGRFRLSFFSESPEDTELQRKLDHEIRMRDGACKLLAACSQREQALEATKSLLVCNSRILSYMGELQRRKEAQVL
Kind of assay: pull-down; GST-RBD/GST-PBD bound to sepharose beads incubated 2 hrs at 4°C with lysates (10 mM MgCl2, 5 mM EDTA) of serum starved HA-EhRho5 trophozoites, with or without 15 uM LPA for 15 mins, followed by 100 nM wortmannin or DMSO; blot with anti-HA. The conditions noted are these: one partner purified.

B1: HA-EhRho5 (natural protein)
chain: not shown
notes: EhRho5 (EhRacD), Rho family GTPase of Entamoeba histolytica, Acc no; EHI_012240; PCR primers run from the ATG to the stop codon; cloned in EhEx-HA with SmaI-XhoI; Expressed under the amoebic cysteine synthase promoter; also called EhRacD; source: E. histolytica HM1:IMSS trophozoites, stably transfected (EhEx-HA), in lysate
As for B1, the “fold increase in binding after LPA treatment against untreated trophozoites” value was determined as 7 fold.
